Assay results taken from patent US10450368.

Columns and labels:
CH505.M9D8gp120/293F [1] = experiment: direct-binding ELISA
CH505.M21D8gp120/293F [2] = experiment: direct-binding ELISA
[3] = target: CH505.TF mutant gp120 M20 (HIV-1); experiment: direct-binding ELISA
CH505.M10D8gp120 [4] = experiment: direct-binding ELISA
CH505.M11D8gp120/293F [5] = experiment: direct-binding ELISA
[6] = target: CH505.TF mutant gp120 M8 (HIV-1); experiment: direct-binding ELISA
[7] = target: CH505.TF mutant gp120 M6 (HIV-1); experiment: direct-binding ELISA
CH505.M19D8gp120 [8] = experiment: direct-binding ELISA
CH505.M5D8gp120293F [9] = experiment: direct-binding ELISA
CH505.M7D8gp120/293F [10] = experiment: direct-binding ELISA
Jo-1 [11] = target: Jo-1 (UniProt P12081); experiment: AtheNA, Ab 25 ug/ml
Chain of Jo-1 (P12081 whole entry): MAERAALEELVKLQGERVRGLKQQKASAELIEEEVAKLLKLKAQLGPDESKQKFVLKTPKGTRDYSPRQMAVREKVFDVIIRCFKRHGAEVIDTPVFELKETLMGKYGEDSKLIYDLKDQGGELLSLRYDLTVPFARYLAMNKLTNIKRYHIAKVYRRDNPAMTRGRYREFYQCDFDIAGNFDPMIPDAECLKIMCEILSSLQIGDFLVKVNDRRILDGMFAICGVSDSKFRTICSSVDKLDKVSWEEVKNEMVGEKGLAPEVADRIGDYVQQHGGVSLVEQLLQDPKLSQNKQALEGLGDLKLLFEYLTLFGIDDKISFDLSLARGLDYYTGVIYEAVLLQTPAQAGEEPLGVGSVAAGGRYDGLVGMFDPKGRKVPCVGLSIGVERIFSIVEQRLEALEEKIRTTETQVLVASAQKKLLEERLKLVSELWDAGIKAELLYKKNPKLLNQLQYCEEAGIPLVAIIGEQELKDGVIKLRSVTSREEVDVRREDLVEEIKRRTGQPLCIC

Centromere B [12] = target: Centromere B (UniProt P07199); experiment: AtheNA, Ab 25 ug/ml
Chain of Centromere B (P07199 whole entry): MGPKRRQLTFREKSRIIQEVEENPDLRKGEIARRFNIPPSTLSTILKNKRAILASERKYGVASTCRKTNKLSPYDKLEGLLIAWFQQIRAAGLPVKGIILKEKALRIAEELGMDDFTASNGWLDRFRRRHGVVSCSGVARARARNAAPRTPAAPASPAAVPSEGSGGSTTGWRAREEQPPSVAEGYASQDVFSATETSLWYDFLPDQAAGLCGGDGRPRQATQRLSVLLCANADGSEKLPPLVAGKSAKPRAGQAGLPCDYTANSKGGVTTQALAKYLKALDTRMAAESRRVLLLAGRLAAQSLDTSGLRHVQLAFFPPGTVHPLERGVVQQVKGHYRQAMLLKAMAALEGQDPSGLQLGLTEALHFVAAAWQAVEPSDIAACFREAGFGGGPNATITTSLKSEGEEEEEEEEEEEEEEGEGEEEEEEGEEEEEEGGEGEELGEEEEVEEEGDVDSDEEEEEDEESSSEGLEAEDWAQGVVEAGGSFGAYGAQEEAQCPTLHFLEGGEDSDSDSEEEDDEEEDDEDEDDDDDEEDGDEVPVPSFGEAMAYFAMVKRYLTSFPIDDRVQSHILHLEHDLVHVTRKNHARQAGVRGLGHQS

SSB [13] = target: SSB (UniProt P05455); experiment: AtheNA, Ab 25 ug/ml
Chain of SSB (P05455 whole entry): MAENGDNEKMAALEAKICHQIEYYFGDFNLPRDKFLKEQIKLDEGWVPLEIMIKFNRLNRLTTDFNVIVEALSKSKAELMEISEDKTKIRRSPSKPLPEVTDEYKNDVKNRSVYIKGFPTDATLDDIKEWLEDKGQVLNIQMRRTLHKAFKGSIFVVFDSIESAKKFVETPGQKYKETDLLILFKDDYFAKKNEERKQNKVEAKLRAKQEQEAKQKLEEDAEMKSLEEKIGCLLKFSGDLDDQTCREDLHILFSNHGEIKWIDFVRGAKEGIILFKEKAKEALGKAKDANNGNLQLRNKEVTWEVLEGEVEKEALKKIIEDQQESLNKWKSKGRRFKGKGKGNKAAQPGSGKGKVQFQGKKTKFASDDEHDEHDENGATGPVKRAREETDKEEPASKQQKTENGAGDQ

Scl-70 [14] = target: Scl-70 (UniProt P11387); experiment: AtheNA, Ab 25 ug/ml
Chain of Scl-70 (P11387 whole entry): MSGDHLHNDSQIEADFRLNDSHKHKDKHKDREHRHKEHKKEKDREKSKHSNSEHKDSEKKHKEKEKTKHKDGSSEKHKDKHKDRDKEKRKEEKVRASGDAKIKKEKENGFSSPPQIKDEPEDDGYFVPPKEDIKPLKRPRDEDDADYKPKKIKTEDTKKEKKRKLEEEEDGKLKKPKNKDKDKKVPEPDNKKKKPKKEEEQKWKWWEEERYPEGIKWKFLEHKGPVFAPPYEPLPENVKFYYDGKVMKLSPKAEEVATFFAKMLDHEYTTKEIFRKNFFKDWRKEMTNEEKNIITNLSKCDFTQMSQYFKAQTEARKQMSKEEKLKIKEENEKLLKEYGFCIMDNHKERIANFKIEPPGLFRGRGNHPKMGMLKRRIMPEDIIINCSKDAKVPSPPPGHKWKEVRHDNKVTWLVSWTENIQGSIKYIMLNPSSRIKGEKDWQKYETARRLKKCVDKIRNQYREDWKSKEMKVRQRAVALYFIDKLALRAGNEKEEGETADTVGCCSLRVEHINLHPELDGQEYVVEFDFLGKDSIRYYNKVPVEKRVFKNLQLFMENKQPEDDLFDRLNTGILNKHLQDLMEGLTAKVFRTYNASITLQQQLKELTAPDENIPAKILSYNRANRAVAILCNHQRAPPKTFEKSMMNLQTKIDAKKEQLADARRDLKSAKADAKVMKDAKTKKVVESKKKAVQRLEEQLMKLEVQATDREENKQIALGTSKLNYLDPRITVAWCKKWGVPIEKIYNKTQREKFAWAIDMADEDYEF

Sm (Smith antigen) [15] = experiment: AtheNA, Ab 25 ug/ml
Histones [16] = experiment: AtheNA, Ab 25 ug/ml
RNP (ribonucleoprotein) [17] = experiment: AtheNA, Ab 25 ug/ml
SSA [18] = experiment: AtheNA, Ab 25 ug/ml
CH505w136.B18D8gp120 = experiment: ELISA
CH505w030.20D8gp120/293F = experiment: ELISA
CH505.M9D8gp120/293F [19] = experiment: ELISA
CH505.M21D8gp120/293F [20] = experiment: ELISA
CH505w020.14D8gp120 = experiment: ELISA
[21] = target: CH505.TF mutant gp120 M20 (HIV-1); experiment: ELISA
CH505.M10D8gp120 [22] = experiment: ELISA
CH505.M11D8gp120/293F [23] = experiment: ELISA
[24] = target: CH505.TF mutant gp120 M8 (HIV-1); experiment: ELISA
CH505.w30.12D8gp120 = experiment: ELISA
[25] = target: CH505.TF mutant gp120 M6 (HIV-1); experiment: ELISA
CH505.M19D8gp120 [26] = experiment: ELISA
CH505.M5D8gp120293F [27] = experiment: ELISA
CH0505_CON D7gp120/293i = experiment: ELISA
CH505.M7D8gp120/293F [28] = experiment: ELISA
Jo-1 [29] = target: Jo-1 (UniProt P12081); experiment: AtheNA, Ab 6.25 ug/ml
Centromere B [30] = target: Centromere B (UniProt P07199); experiment: AtheNA, Ab 6.25 ug/ml
SSB [31] = target: SSB (UniProt P05455); experiment: AtheNA, Ab 6.25 ug/ml
Scl-70 [32] = target: Scl-70 (UniProt P11387); experiment: AtheNA, Ab 6.25 ug/ml
Sm (Smith antigen) [33] = experiment: AtheNA, Ab 6.25 ug/ml
Histones [34] = experiment: AtheNA, Ab 6.25 ug/ml
RNP (ribonucleoprotein) [35] = experiment: AtheNA, Ab 6.25 ug/ml
SSA [36] = experiment: AtheNA, Ab 6.25 ug/ml
[37] = target: HIV-1 CH505 transmitted/founder gp120 Env (HIV-1); experiment: SPR, antibody captured on anti-human Ig Fc, gp120 injected
Jo-1 [38] = target: Jo-1 (UniProt P12081); experiment: AtheNA, Ab 12.5 ug/ml
Centromere B [39] = target: Centromere B (UniProt P07199); experiment: AtheNA, Ab 12.5 ug/ml
SSB [40] = target: SSB (UniProt P05455); experiment: AtheNA, Ab 12.5 ug/ml
Scl-70 [41] = target: Scl-70 (UniProt P11387); experiment: AtheNA, Ab 12.5 ug/ml
Sm (Smith antigen) [42] = experiment: AtheNA, Ab 12.5 ug/ml
Histones [43] = experiment: AtheNA, Ab 12.5 ug/ml
RNP (ribonucleoprotein) [44] = experiment: AtheNA, Ab 12.5 ug/ml
SSA [45] = experiment: AtheNA, Ab 12.5 ug/ml

Substance: CH104 (antibody)
- LogAUC (CH505.M9D8gp120/293F [1]): 10.8
- LogAUC (CH505.M21D8gp120/293F [2]): 11.2
- LogAUC [3]: 10.8
- LogAUC (CH505.M10D8gp120 [4]): 11.7
- LogAUC (CH505.M11D8gp120/293F [5]): 12
- LogAUC [6]: 10.1
- LogAUC [7]: 11.6
- LogAUC (CH505.M19D8gp120 [8]): 11.3
- LogAUC (CH505.M5D8gp120293F [9]): 9.02
- LogAUC (CH505.M7D8gp120/293F [10]): 9.73

Substance: CH235 IA4 (antibody)
- AtheNA signal (relative luminescence units) (Jo-1 [11]): 2
- AtheNA signal (relative luminescence units) (Centromere B [12]): 10
- AtheNA signal (relative luminescence units) (SSB [13]): 4
- AtheNA signal (relative luminescence units) (Scl-70 [14]): 2
- AtheNA signal (relative luminescence units) (Sm (Smith antigen) [15]): 12
- AtheNA signal (relative luminescence units) (Histones [16]): 9
- AtheNA signal (relative luminescence units) (RNP (ribonucleoprotein) [17]): 5
- AtheNA signal (relative luminescence units) (SSA [18]): 12
- LogAUC (CH505w136.B18D8gp120): 0
- LogAUC (CH505w030.20D8gp120/293F): 0.24
- LogAUC (CH505.M9D8gp120/293F [19]): 0
- LogAUC (CH505.M21D8gp120/293F [20]): 0
- LogAUC (CH505w020.14D8gp120): 0
- LogAUC [21]: 0
- LogAUC (CH505.M10D8gp120 [22]): 0.12
- LogAUC (CH505.M11D8gp120/293F [23]): 0
- LogAUC [24]: 0
- LogAUC (CH505.w30.12D8gp120): 0
- LogAUC [25]: 0
- LogAUC (CH505.M19D8gp120 [26]): 0
- LogAUC (CH505.M5D8gp120293F [27]): 1.36
- LogAUC (CH0505_CON D7gp120/293i): 0
- LogAUC (CH505.M7D8gp120/293F [28]): 0
- AtheNA signal (relative luminescence units) (Jo-1 [29]): 4
- AtheNA signal (relative luminescence units) (Centromere B [30]): 5
- AtheNA signal (relative luminescence units) (SSB [31]): 5
- AtheNA signal (relative luminescence units) (Scl-70 [32]): 2
- AtheNA signal (relative luminescence units) (Sm (Smith antigen) [33]): 6
- AtheNA signal (relative luminescence units) (Histones [34]): 4
- AtheNA signal (relative luminescence units) (RNP (ribonucleoprotein) [35]): 3
- AtheNA signal (relative luminescence units) (SSA [36]): 11
- Kd [37]: 30.6 µM
- koff [37]: 0.0881 s⁻¹
- kon [37]: 2900 M⁻¹ s⁻¹
- AtheNA signal (relative luminescence units) (Jo-1 [38]): 3
- AtheNA signal (relative luminescence units) (Centromere B [39]): 5
- AtheNA signal (relative luminescence units) (SSB [40]): 3
- AtheNA signal (relative luminescence units) (Scl-70 [41]): 2
- AtheNA signal (relative luminescence units) (Sm (Smith antigen) [42]): 6
- AtheNA signal (relative luminescence units) (Histones [43]): 6
- AtheNA signal (relative luminescence units) (RNP (ribonucleoprotein) [44]): 4
- AtheNA signal (relative luminescence units) (SSA [45]): 11

Substance: CH235 IA3 (antibody)
- AtheNA signal (relative luminescence units) (Jo-1 [11]): 8
- AtheNA signal (relative luminescence units) (Centromere B [12]): 27
- AtheNA signal (relative luminescence units) (SSB [13]): 9
- AtheNA signal (relative luminescence units) (Scl-70 [14]): 4
- AtheNA signal (relative luminescence units) (Sm (Smith antigen) [15]): 13
- AtheNA signal (relative luminescence units) (Histones [16]): 12
- AtheNA signal (relative luminescence units) (RNP (ribonucleoprotein) [17]): 7
- AtheNA signal (relative luminescence units) (SSA [18]): 10
- LogAUC (CH505w136.B18D8gp120): 0
- LogAUC (CH505w030.20D8gp120/293F): 1.16
- LogAUC (CH505.M9D8gp120/293F [19]): 0
- LogAUC (CH505.M21D8gp120/293F [20]): 0
- LogAUC (CH505w020.14D8gp120): 2.72
- LogAUC [21]: 0
- LogAUC (CH505.M10D8gp120 [22]): 0.08
- LogAUC (CH505.M11D8gp120/293F [23]): 0
- LogAUC [24]: 0
- LogAUC (CH505.w30.12D8gp120): 0
- LogAUC [25]: 2.96
- LogAUC (CH505.M19D8gp120 [26]): 0.11
- LogAUC (CH505.M5D8gp120293F [27]): 7.01
- LogAUC (CH0505_CON D7gp120/293i): 5.09
- LogAUC (CH505.M7D8gp120/293F [28]): 0
- AtheNA signal (relative luminescence units) (Jo-1 [29]): 2
- AtheNA signal (relative luminescence units) (Centromere B [30]): 9
- AtheNA signal (relative luminescence units) (SSB [31]): 3
- AtheNA signal (relative luminescence units) (Scl-70 [32]): 2
- AtheNA signal (relative luminescence units) (Sm (Smith antigen) [33]): 7
- AtheNA signal (relative luminescence units) (Histones [34]): 5
- AtheNA signal (relative luminescence units) (RNP (ribonucleoprotein) [35]): 4
- AtheNA signal (relative luminescence units) (SSA [36]): 12
- AtheNA signal (relative luminescence units) (Jo-1 [38]): 3
- AtheNA signal (relative luminescence units) (Centromere B [39]): 15
- AtheNA signal (relative luminescence units) (SSB [40]): 6
- AtheNA signal (relative luminescence units) (Scl-70 [41]): 3
- AtheNA signal (relative luminescence units) (Sm (Smith antigen) [42]): 12
- AtheNA signal (relative luminescence units) (Histones [43]): 7
- AtheNA signal (relative luminescence units) (RNP (ribonucleoprotein) [44]): 5
- AtheNA signal (relative luminescence units) (SSA [45]): 12

Substance: CH235UA/293i (antibody)
- AtheNA signal (relative luminescence units) (Jo-1 [11]): 5
- AtheNA signal (relative luminescence units) (Centromere B [12]): 3
- AtheNA signal (relative luminescence units) (SSB [13]): 3
- AtheNA signal (relative luminescence units) (Scl-70 [14]): 3
- AtheNA signal (relative luminescence units) (Sm (Smith antigen) [15]): 6
- AtheNA signal (relative luminescence units) (Histones [16]): 3
- AtheNA signal (relative luminescence units) (RNP (ribonucleoprotein) [17]): 4
- AtheNA signal (relative luminescence units) (SSA [18]): 9
- AtheNA signal (relative luminescence units) (Jo-1 [29]): 3
- AtheNA signal (relative luminescence units) (Centromere B [30]): 2
- AtheNA signal (relative luminescence units) (SSB [31]): 5
- AtheNA signal (relative luminescence units) (Scl-70 [32]): 3
- AtheNA signal (relative luminescence units) (Sm (Smith antigen) [33]): 5
- AtheNA signal (relative luminescence units) (Histones [34]): 2
- AtheNA signal (relative luminescence units) (RNP (ribonucleoprotein) [35]): 2
- AtheNA signal (relative luminescence units) (SSA [36]): 10
- AtheNA signal (relative luminescence units) (Jo-1 [38]): 5
- AtheNA signal (relative luminescence units) (Centromere B [39]): 3
- AtheNA signal (relative luminescence units) (SSB [40]): 4
- AtheNA signal (relative luminescence units) (Scl-70 [41]): 3
- AtheNA signal (relative luminescence units) (Sm (Smith antigen) [42]): 6
- AtheNA signal (relative luminescence units) (Histones [43]): 4
- AtheNA signal (relative luminescence units) (RNP (ribonucleoprotein) [44]): 3
- AtheNA signal (relative luminescence units) (SSA [45]): 9

Substance: CH103 (antibody)
- LogAUC (CH505.M9D8gp120/293F [1]): 11.6
- LogAUC (CH505.M21D8gp120/293F [2]): 11.4
- LogAUC [3]: 12.2
- LogAUC (CH505.M10D8gp120 [4]): 13.2
- LogAUC (CH505.M11D8gp120/293F [5]): 13.4
- LogAUC [6]: 11.5
- LogAUC [7]: 13.1
- LogAUC (CH505.M19D8gp120 [8]): 13.3
- LogAUC (CH505.M5D8gp120293F [9]): 9.84
- LogAUC (CH505.M7D8gp120/293F [10]): 11.1

Substance: CH103 UCA (antibody)
- LogAUC (CH505w136.B18D8gp120): 0
- LogAUC (CH505w030.20D8gp120/293F): 0
- LogAUC (CH505w020.14D8gp120): 0.33
- LogAUC (CH505.w30.12D8gp120): 0
- LogAUC (CH0505_CON D7gp120/293i): 4.3
- LogAUC (CH505.M9D8gp120/293F [1]): 0.12
- LogAUC (CH505.M21D8gp120/293F [2]): 0
- LogAUC [3]: 0
- LogAUC (CH505.M10D8gp120 [4]): 1.35
- LogAUC (CH505.M11D8gp120/293F [5]): 2.62
- LogAUC [6]: 0
- LogAUC [7]: 5.23
- LogAUC (CH505.M19D8gp120 [8]): 1.74
- LogAUC (CH505.M5D8gp120293F [9]): 0
- LogAUC (CH505.M7D8gp120/293F [10]): 0.44
- Kd [37]: 0.227 µM
- kon [37]: 37000 M⁻¹ s⁻¹
